Experimental data: article PMC13079917

Biological target: Monoclonal antibody L9 (human IgG)
Experiment: KinExA (kinetic exclusion assay); equilibrium in solution; antigen serially diluted into a constant concentration of antibody (human IgG as constant binding partner); equilibrated 24 h; room temperature (about 25 °C); 1x HBS-EP+ pH 7.4 with BSA at 1 mg/mL; antigen cross-linked to beads as capturing reagent; n-curve analysis

Sequence of Monoclonal antibody L9 (human IgG) (heavy, as listed by the source, chain 1 of 2): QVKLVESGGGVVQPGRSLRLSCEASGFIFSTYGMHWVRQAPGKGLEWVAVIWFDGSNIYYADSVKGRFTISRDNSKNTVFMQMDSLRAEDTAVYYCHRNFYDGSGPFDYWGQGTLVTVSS
Sequence of Monoclonal antibody L9 (human IgG) (light, as listed by the source, chain 2 of 2): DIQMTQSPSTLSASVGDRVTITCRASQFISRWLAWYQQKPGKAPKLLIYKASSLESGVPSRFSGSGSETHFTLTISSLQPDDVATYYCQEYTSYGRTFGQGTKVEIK

NANPNVDPNANPNVDP (modifications not checked) [double-NPNV peptide]
Kd: 4.56 nM

NANPNVDPNANPNVDPNANPNVDP (modifications not checked) [triple-NPNV peptide]
Kd: 0.059 nM
